Source: IntAct's records for PubMed 21151042

B1: Bcl-2-like protein 11 (Mus musculus), O54918-1 (parent)
chain: MAKQPSDVSSECDREGGQLQPAERPPQLRPGAPTSLQTEPQGNPDGEGDRCPHGSPQGPLAPPASPGPFATRSPLFIFVRRSSLLSRSSSGYFSFDTDRSPAPMSCDKSTQTPSPPCQAFNHYLSAMASIRQSQEEPEDLRPEIRIAQELRRIGDEFNETYTRRVFANDYREAEDHPQMVILQLLRFIFRLVWRRH
B2: Bcl-2-like protein 11 (Mus musculus), O54918-1 (parent)
chain: B1 chain
partner: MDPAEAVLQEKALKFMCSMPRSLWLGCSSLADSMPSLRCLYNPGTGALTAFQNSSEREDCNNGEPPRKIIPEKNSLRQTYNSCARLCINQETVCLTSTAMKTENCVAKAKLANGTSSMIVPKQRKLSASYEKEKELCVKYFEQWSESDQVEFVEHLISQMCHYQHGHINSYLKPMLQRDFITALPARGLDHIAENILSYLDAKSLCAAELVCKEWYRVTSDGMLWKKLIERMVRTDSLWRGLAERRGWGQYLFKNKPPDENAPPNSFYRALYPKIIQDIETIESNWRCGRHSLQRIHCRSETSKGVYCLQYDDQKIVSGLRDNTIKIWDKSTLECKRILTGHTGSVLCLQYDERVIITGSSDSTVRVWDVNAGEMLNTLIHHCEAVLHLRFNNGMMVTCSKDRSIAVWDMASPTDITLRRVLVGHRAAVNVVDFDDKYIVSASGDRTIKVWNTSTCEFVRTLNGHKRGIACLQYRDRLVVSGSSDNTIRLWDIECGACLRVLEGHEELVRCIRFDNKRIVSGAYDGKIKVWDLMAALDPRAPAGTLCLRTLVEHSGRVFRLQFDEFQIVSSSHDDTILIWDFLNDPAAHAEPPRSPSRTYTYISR

Variants of: B1
Conditions: with kapca_human PRKACA

effect of a mutation on the interaction | Variant
disrupting interaction | MAKQPSDVSSECDREGGQLQPAERPPQLRPGAPTSLQTEPQGNPDGEGDRCPHGSPQGPLAPPASPGPFATRSPLFIFVRRSALLSRSSSGYFSFDTDRSPAPMSCDKSTQTPSPPCQAFNHYLSAMASIRQSQEEPEDLRPEIRIAQELRRIGDEFNETYTRRVFANDYREAEDHPQMVILQLLRFIFRLVWRRH [S83A]

Variants of: B2
Conditions: with fbw1a_mouse Btrc

effect of a mutation on the interaction | Variant
increasing interaction | MAKQPSDVSSECDREGGQLQPAERPPQLRPGAPTSLQTEPQGNPDGEGDRCPHGSPQGPLAPPASPGPFATRSPLFIFVRRSALLSRSSSGYFSFDTDRSPAPMSCDKSTQTPSPPCQAFNHYLSAMASIRQSQEEPEDLRPEIRIAQELRRIGDEFNETYTRRVFANDYREAEDHPQMVILQLLRFIFRLVWRRH [S83A]
